According to patent US11091546B2, “Optimized PNE-based chimeric receptor T cell switches and uses thereof” (The Scripps Research Institute, priority 2015, dated 2021):
“And” between values parts separate entries of the source, which are not always exact repeats. Equal values may be shown once. “Also recorded” adds a separate entry of the source.

How the values were obtained:
Nalm-6^Luc/GFP cells = test: Nalm-6 Luc/GFP leukemia xenograft; format: in vivo; settings: short-dimeric sCAR-T cells; 0.5 mg/kg every other day from day 6
Experimental: NSG mice were inoculated with CD19^+ Nalm-6^GFP/Luc cells. Six days later, 40×10^6 sCAR-T cells were delivered IV and switch dosing commenced every other day at 0.5 mg/kg for 10 days. Tumor burden was followed by luminescence after injection of luciferin and imaged on an in vivo imaging system (IVIS; PerkinElmer, Waltham, Mass., USA).
Asterisks indicate significance from LCNT Fab group. Data are represented as means±SEM, and statistical significance was calculated using the 2-way ANOVA with Bonferroni's post-test (B & E; shown for final time-point only) or by one-tailed student's t-test (C & F) where *=p<0.05, **=p<0.01 and ***=p<0.001.
NSG mice were inoculated with Nalm-6^GFP/Luc as described in FIG. 28. […] A fourth group consisted of two cohorts (n=3) of mice injected I.V. with sCAR-T cells without (−) LCNT Fab switch. LCNT Fab dosing in the indicated group was carried out daily at 0.5 mg/kg after the initial T cell infusion. Luminescence was measured at 6 h and subsequently every 24 h as indicated. Cohorts were sacrificed for analysis immediately following IVIS imaging. […] Gray lines indicate tumor burden in PBS and sCAR-T cell—LCNT Fab controls. […] Data are represented as means±SEM, and statistical significance was calculated using the one-tailed student's t-test (C & D) where *=p<0.05, **=p<0.01 and ***=p<0.001.
NSG mice were inoculated with Nalm6^GFP/Luc and six days later engrafted with short-dimeric sCAR-T cells as described in FIG. 29. […] Dosing was carried out for 15 d starting at day 6 (corresponding with sCAR-T cell infusion) as indicated by gray shading. Control groups CART-19 and PBS received no switch. The NS group received sCAR-T cells but no switch. Open circles denote the death of individual mice without evidence of tumor burden and may reflect GVHD. Triangles in PBS, NS and q.a.d. group indicate death due to increasing tumor burden. […] (19) indicates CART-19. […] (19) indicates CART-19. […] Triangles indicate the death of individual mice with significant tumor burden. The single mouse death in the 0.05 mg/kg group occurred while tumor burden was decreasing. […] Statistical significance was calculated using the one-tailed student's t-test (B, C & E) where *=p<0.05, **=p<0.01 and ***=p<0.001.
The different sCAR designs were tested in a xenograft model harboring luciferized NALM-6 (CD19+, CD80−, CD86−) cells. 1 mg/kg monovalent switch “A” was administered along with sCAR cells. […] Optimized hinge improved response. Short hinge CARs have faster clearance. Short, dimeric hinge CARs have improved persistence. Tumor burden was visualized with IVIS imaging. Experiments are repeated with a humanized scFv and bivalent switches.
Activity of the switchable CAR-T cell platform in vivo was evaluated via tumor regression in a Nalm-6^Luc/GFP leukemia xenograft model in immunodeficient NOD scid gamma (NSG) mice. These mice without treatment succumb to disease within 21 days. The impact of CAR hinge design on in vivo efficacy was determined using mice inoculated with Nalm-6^Luc/GFP, followed by I.V. injection of long, short, or short-dimeric sCAR-T cells 6 days later. The LCNT Fab was dosed I.V. (0.5 mg/kg) every other day for 10 days and tumor regression was followed by in vivo imaging (IVIS) of the luciferase signal from Nalm-6^Luc/GFP cells (FIG. 29A).
The effect of switch grafting position on the control of tumor burden was determined. As with the previous model, short-dimeric CAR-T cells were injected 6 days after tumor inoculation and mice were treated every other day (starting at day 6) with 0.5 mg/kg LCNT, HCNT, NTBV, LCC1, or HCCT Fab switches (FIG. 29D).
To determine the proliferation and localization of sCAR-T cell cytotoxicity during this time interval, mice were sorted into 5 cohorts per treatment regimen and analyzed at 8, 24, 48, 72, and 96 h after treatment with short-dimeric sCAR-T cells+LCNT Fab switch or with conventional CART-19 and no switch. […]

RS4;11 (CD19 positive) = format: cell-based, human
Experimental: Activity was assessed against NALM-6 (CD19^+), RS4;11 (CD19^+), or RPMI-8226 (CD19^−) (Table 2). The activity of the IgG (FcNull) switch was assessed against RS4;11 (CD19^+), or K562 (CD19^−) (Table 2). The activity of the C-terminal switch was assessed against RS4;11 (CD19^+), or K562 (CD19^−) (Table 4).
(§1) sCAR-T cells were co-cultured (96-well plate round bottom; 20-24h; 37° C.; 5% CO2) with RS4;11 (CD19^+) or K562 (CD19^−) cells at a ratio of 10 sCAR-T cells to 1 RS4;11/K562 cell (110,000 cells in total) in 100 uL of RPMI-1640 supplemented with 5% heat inactivated fetal calf serum (Thermo), 1% penicillin-streptomycin (Gibco), 1% L-Glutamine (Gibco), 1 mM sodium pyruvate (Gibco) and 1% non-essential amino acids (Gibco). After 24 hours, each plate was centrifuged at 400×g for 5 minutes at 4° C. To measure target cell lysis, the intracellular protein lactate dehydrogenase (LDH) was measured in the cytotoxicity assay supernatants from the co-cultured cells using the CytoTox 96® Non-Radioactive Cytotoxicity Assay kit (Promega). To measure the effector responses of the sCART cells in vitro, cytokine levels were measured in the cytotoxicity assay supernatants using the Cytometric Bead Array (CBA) Human Th1/Th2 Cytokine Kit II (BD). […]
The GCN4 CAR design was therefore modified to contain the CD8 hinge region (used in CART-19), which has an extracellular CAR domain of approximately 80 Å, and an IgG4 hinge with an extracellular CAR domain of approximately 15-30 Å. An additional construct was developed where a mutation was introduced into the IgG4 hinge that allows for spontaneous disulphide bridge formation between receptor molecules (IgG4m). […] Briefly, activated PBMC were transduced with lentivirus (SEQ ID: 1) containing the anti-PNE CAR construct (SEQ ID: 180) with the CD8 (SEQ ID: 68), IgG4 (SEQ ID: 70) and IgG4m (SEQ ID: 71) hinge domains.
Monovalent and bivalent combinations of these switches were expressed in mammalian protein expression systems (HEK293 or CHO cells) and purified using protein-G columns. Switches were used in cytotoxicity assays at a dose titration within the range of 10 nM to 0.0001 nM. The activity of each switch combination was tested in vitro in the General cytotoxicity assays where LDH release, cytokine production and sCART cell activation were compared (FIGS. 11A-11C).
CAR-T or target cells were incubated with 1 pM to […] of switch in FACS buffer (PBS, 1% FCS, 2 mM EDTA) for 30 minutes at 4° C. before being washed twice and then incubated with the PE-conjugated goat-anti-human kappa antibody (1:100). Cells were washed two times and analyzed using the Accuri flow cytometer (BD). CAR-T cell activity was determined using the CytoTox 96® Non-Radioactive Cytotoxicity Assay (Promega). CAR-T cells were incubated with target cells in the presence of switch for 20-24 hours at 37° C. in complete RPMI with 5% FCS. At the end of the assay, 30 μL of cell free supernatant was added to 30 μL of the LDH assay reagent in a 96-well plate and incubated for 30 minutes at room temperature in the dark; 30 μL of stop solution was added before the plate was read at OD495.

RS4;11 cells = test: Cytokine release (CBA) in cytotoxicity co-culture; format: cell-based, human; settings: 1 nM switch
Experimental: as §1
CAR-T or target cells were incubated with 1 pM to […] of switch in FACS buffer (PBS, 1% FCS, 2 mM EDTA) for 30 minutes at 4° C. before being washed twice and then incubated with the PE-conjugated goat-anti-human kappa antibody (1:100). Cells were washed two times and analyzed using the Accuri flow cytometer (BD). CAR-T cell activity was determined using the CytoTox 96® Non-Radioactive Cytotoxicity Assay (Promega). […]

CD33+ MOLM14 cells = test: Cytotoxicity assay, sCAR-T cells + anti-CD33 (hP67.6) switches; format: cell-based; parameters: unit not given here; settings: duplicates
Text: (§2) FIG. 38A illustrates multiple fusion/grafting locations: A=LCNT1 (light chain N terminus version 1), B=HCNT3 (heavy chain N terminus version 3), C=heavy chain C terminus, and D=light chain C terminus). […] Data shown are an average of duplicate samples, and error bars represent SD. Only the NT switches plus the BvCT and By CH1CL1 as references are depicted.
(§3) Monovalent and bivalent combinations of these switches were expressed and tested in cytotoxicity assays at a dose titration within the range of 0.4 nM to 0.0001 nM. […] Data shown are an average of duplicate samples, and error bars represent SD. Only the NT switches plus the BvCT and By CH1CL1 as references are depicted. cytokine secretion was measured.

MOLM14 cell line = test: Cytokines in cytotoxicity assay supernatant (CBA Human Th1/Th2 II Kit); format: cell-based; parameters: unit not given here; settings: duplicates
Text: as §2, §3

anti-CD19 Fab HCCT: FMC63 anti-CD19 Fab, peptide on C-terminus of heavy chain (SEQ ID 27 & 34)
tumor burden (IVIS), switch graft position comparison (Nalm-6^Luc/GFP cells): little control | EC50 (RS4;11 (CD19 positive)): 0.02 ± 0.0009 nM

anti-CD19 Fab NTBV: FMC63 anti-CD19 Fab, peptide on N-terminus of light and heavy chain (SEQ ID 36 & 88)
cytokine production (RS4;11 cells; CD8 hinge sCAR-T): induced the greatest cytokine production; also recorded: induced the greatest IL-2 production | increase in IL-2 production (RS4;11 cells; CD8 sCAR-T cells): 50% | tumor burden (IVIS), switch graft position comparison (Nalm-6^Luc/GFP cells): greatest reduction in tumor burden

anti-CD19 Fab WT: FMC63 anti-CD19 Fab with no grafted peptide (SEQ ID 27 & 29) [reference compound]
cytotoxicity (RS4;11 (CD19 positive)): did not induce significant cytotoxicity

anti-CD19 IgG WT: FMC63 anti-CD19 IgG with no grafted peptide (SEQ ID 27 & 28) [reference compound]
cytotoxicity (RS4;11 (CD19 positive)): did not induce significant cytotoxicity

B1: hP67.6 HCNT: anti-CD33 hP67.6 Fab, GCN4 on heavy chain N-terminus, rigid linker SEQ ID 45 (SEQ ID 231 & 220) (protein)
light: DIQLTQSPSTLSASVGDRVTITCRASESLDNYGIRFLTWFQQKPGKAPKLLMYAASNQGSGVPSRFSGSGSGTEFTLTISSLQPDDFATYYCQQTKEVPWSFGQGTKVEVKRTVAAPSVFIFPPSDEQLKSGTASVVCLLNNFYPREAKVQWKVDNALQSGNSQESVTEQDSKDSTYSLSSTLTLSKADYEKHKVYACEVTHQGLSSPVTKSFNRGEC
heavy: NYHLENEVARLKKLLVGEAAAKEAAAKAEVQLVQSGAEVKKPGSSVKVSCKASGYTITDSNIHWVRQAPGQSLEWIGYIYPYNGGTDYNQKFKNRATLTVDNPTNTAYMELSSLRSEDTAFYYCVNGNPWLAYWGQGTLVTVSSARTKGPSVFPLAPSSKSTSGGTAALGCLVKDYFPEPVTVSWNSGALTSGVHTFPAVLQSSGLYSLSSVVTVPSSSLGTQTYICNVNHKPSNTKVDKKVEPKSC
modifications: GCN4 on heavy chain N-terminus; Made in lab - CD33 (hP67.6) LCWT; Made in Lab - CD33 (hP67.6) HCNT1
cytotoxicity (FIG. 38G) (CD33+ MOLM14 cells; switch 0.1 pM): 0 | cytotoxicity (FIG. 38G) (CD33+ MOLM14 cells; switch 3.2 pM): 10.3 and 8.3 | cytotoxicity (FIG. 38G) (CD33+ MOLM14 cells; switch 16 pM): 47.8 and 45.5 | cytotoxicity (FIG. 38G) (CD33+ MOLM14 cells; switch 80 pM): 65 and 64.4 | cytotoxicity (FIG. 38G) (CD33+ MOLM14 cells; switch 400 pM): 69.4 and 70.2 | IFNg in supernatant (FIG. 38H) (MOLM14 cell line): 1037.59 and 876.36 | Il-2 in supernatant (FIG. 38H) (MOLM14 cell line): 861.13 and 653 | TNFa in supernatant (FIG. 38H) (MOLM14 cell line): 114.13 and 87.74
